Like-named read-outs stand apart in the source and are kept apart here.
Key:
[1] = In vitro fatty acid elongation assay with yeast microsomes, 18:0 acyl-CoA substrate; assay type: biochemical, Saccharomyces cerevisiae; details: for (%) 20:0 acyl CoA / (%) 22:0 acyl CoA / (%) 24:0 acyl CoA / (%) 26:0 acyl CoA / (%) Total / Rate, 20:0 acyl CoA / Rate, 22:0 acyl CoA / Rate, 24:0 acyl CoA / Rate, 26:0 acyl CoA / Rate, Total: second experiment
Description: (§1) Transformed yeast cells were grown in the presence of either glucose or galactose (2% w/v) as described in Example 1. Cells were harvested by centrifugation at 5000×g for 10 min and washed with 10 ml ice cold isolation buffer (IB), which contains 80 mM Hepes-KOH, pH 7.2, 5 mM EGTA, 5 mM EDTA, 10 mM KC1, 320 mM sucrose and 2 mM DTT). Cells were then resuspended in enough IB to fill a 1.7 ml tube containing 700 μl of 0.5 μm glass beads and yeast microsomes were isolated from the cells essentially as described in Tillman, T. and Bell, R., J. Biol. Chem. 261:9144–9149 (1986). The microsomal membrane pellet was recovered by centrifugation at 252,000×g for 60 min. The pellet was rinsed by resuspending in 40 ml fresh IB and again recovered by centrifugation at 252000×g for 60 min. Microsomal pellets were resuspended in a minimal volume of IB, and the protein concentration adjusted to 2.5 μg μl^−1 by addition of IB containing 15% glycerol. Microsomes were frozen on dry ice and stored at −80° C. The protein concentration in microsomes was determined by the Bradford method (Bradford, 1976).
(§2) Fatty acid elongase activity was measured essentially as described in Hlousek-Radojcic, A. et al., Plant J. 8:803–809 (1995). Briefly, the standard elongation reaction mix contained 80 mM Hepes-KOH, pH 7.2, 20 mM MgCl2, 500 μM NADPH, 1 mM ATP, 100 μM malonyl-CoA, 10 μM CoA-SH and 15 μM radioactive acyl-CoA substrate. The radiolabeled substrate was either [1^−14C]18:1-CoA (50 uCi μmol^−1), [1^−14C]18:0-CoA (55 uCi μmol^−1), or [1^−14C]16:0-CoA (54 uCi μmol^−1). The reaction was initiated by the addition of yeast microsomes (5 μg protein) and the mixture incubated at 30° C. for the indicated period of time. The final reaction volume was 25 μl.
(§3) Methyl esters of the acyl-CoA elongation products were prepared as described in Example 1. Methyl esters were separated on reversed phase silica gel KC18 TLC plates (Whatman, […] thick), quantified by phosphorimaging, and analyzed on by ImageQuant software (Molecular Dynamics, Inc., Sunnyvale, Calif.). The detection limit for each product is about 0.001 nanomoles per min. per mg microsomal protein, depending on the phosphorimage exposure time.
(§4) Yeast cultures containing full-length EL1 in λYES and full-length EL2 in pYEUra3 were grown in the presence of galactose or glucose as described in Example 2. Microsomes were then prepared from each of the cultures and fatty acid elongation assays were carried out as described in Example 2.
(§5) In the first experiment, microsomes were prepared from galactose-induced cultures of EL1, EL2 and FAE1, and incubated with either [1-^14C] 18:0 acyl-CoA or [1-^14C] 18:1 acyl-CoA as substrate. The amounts of various reaction products synthesized after 30 minutes (min) were determined as described in Example 2.
In a second experiment, microsomes were prepared from galactose-induced and from glucose-repressed yeast cultures containing EL1 or EL2 coding sequences. The microsomal preparations were incubated with either 18:0 acyl-CoA or 18:1 acyl-CoA as substrate and the fatty acid reaction products determined as described above. […]

[2] = assay type: biochemical, Saccharomyces cerevisiae; details: for (%) 20:1 acyl CoA / (%) 22:1 acyl CoA / (%) 24:1 acyl CoA / (%) 26:1 acyl CoA / (%) Total / Rate, 20:1 acyl CoA / Rate, 22:1 acyl CoA / Rate, 24:1 acyl CoA / Rate, 26:1 acyl CoA / Rate, Total: second experiment
Description: as §1, §2, §3, §4, §5
In a second experiment, microsomes were prepared from galactose-induced and from glucose-repressed yeast cultures containing EL1 or EL2 coding sequences. The microsomal preparations were incubated with either 18:0 acyl-CoA or 18:1 acyl-CoA as substrate and the fatty acid reaction products determined as described above.

[3] = 18:0-CoA substrate, +Galactose (induced)
[4] = 18:0-CoA substrate, +Glucose (uninduced)
[5] = 18:0-CoA substrate, galactose-induced, 30 min, first experiment
[6] = +Gal, standard reaction mix, average of two experiments
[7] = +Glu, standard reaction mix, one experiment
[8] = galactose-induced, −A&C (ATP and Coenzyme A omitted), average of two experiments
[9] = galactose-induced, −ATP, average of two experiments
[10] = galactose-induced, −CoA, average of two experiments
[11] = 18:1-CoA substrate, +Galactose (induced)
[12] = 18:1-CoA substrate, +Glucose (uninduced)
[13] = 18:1-CoA substrate, galactose-induced, 30 min, first experiment

B1: EL1: Arabidopsis β-keto acyl synthase gene product (SEQ ID NO:2) expressed in yeast microsomes (protein, listed as Arabidopsis thaliana)
chain: MDRERLTAEMAFRDSSSAVIRIRRRLPDLLTSVKLKYVKLGLHNSCNVTTILFFLIILPLTGTVLVQLTGLTFDTFSELWSNQAVQLDTATRLTCLVFLSFVLTLYVANRSKPVYLVDFSCYKPEDERKISVDSFLTMTEENGSFTDDTVQFQQRISNRAGLGDETYLPRGITSTPPKLNMSEARAEAEAVMFGALDSLFEKTGIKPAEVGILIVNCSLFNPTPSLSAMIVNHYKMREDIKSYNLGGMGCSAGLISIDLANNLLKANPNSYAVVVSTENITLNWYFGNDRSMLLCNCIFRMGGAAILLSNRRQDRKKSKYSLVNVVRTHKGSDDKNYNCVYQKEDERGTIGVSLARELMSVAGDALKTNITTLGPMVLPLSEQLMFLISLVKRKMFKLKVKPYIPDFKLAFEHFCIHAGGRAVLDEVQKNLDLKDWHMEPSRMTLHRFGNTSSSSLWYEMAYTEAKGRVKAGDRLWQIAFGSGFKCNSAVWKALRPVSTEEMTGNAWAGSIDQYPVKVVQ
(%) 20:0 acyl CoA [1, 3]: 55.8%
(%) 22:0 acyl CoA [1, 3]: 17.4%
(%) 24:0 acyl CoA [1, 3]: 15.3%
(%) 26:0 acyl CoA [1, 3]: 11.5%
(%) Total [1, 3]: 100.0%
Rate, 20:0 acyl CoA [1, 3]: 0.074 Nanomoles/minute/mg of microsomal protein
Rate, 22:0 acyl CoA [1, 3]: 0.023 Nanomoles/minute/mg of microsomal protein
Rate, 24:0 acyl CoA [1, 3]: 0.020 Nanomoles/minute/mg of microsomal protein
Rate, 26:0 acyl CoA [1, 3]: 0.015 Nanomoles/minute/mg of microsomal protein
Rate, Total [1, 3]: 0.133 Nanomoles/minute/mg of microsomal protein
(%) 20:0 acyl CoA [1, 4]: 100.0%
(%) 22:0 acyl CoA [1, 4]: 0.0%
(%) 24:0 acyl CoA [1, 4]: 0.0%
(%) 26:0 acyl CoA [1, 4]: 0.0%
(%) Total [1, 4]: 100.0%
Rate, 20:0 acyl CoA [1, 4]: 0.007 Nanomoles/minute/mg of microsomal protein
Rate, 22:0 acyl CoA [1, 4]: 0.000 Nanomoles/minute/mg of microsomal protein
Rate, 24:0 acyl CoA [1, 4]: 0.000 Nanomoles/minute/mg of microsomal protein
Rate, 26:0 acyl CoA [1, 4]: 0.000 Nanomoles/minute/mg of microsomal protein
Rate, Total [1, 4]: 0.007 Nanomoles/minute/mg of microsomal protein
effect of omission of ATP and/or CoA on overall amounts of VLCFAs synthesized ([1]; 18:0-CoA substrate, galactose-induced): does not have a significant effect
(%) 20:0 acyl-CoA product [1, 5]: 38.8%
(%) 22:0 acyl-CoA product [1, 5]: 21.9%
(%) 24:0 acyl-CoA product [1, 5]: 19.9%
(%) 26:0 acyl-CoA product [1, 5]: 19.4%
(%) Total acyl-CoA products [1, 5]: 100.0%
Rate, 20:0 acyl-CoA product [1, 5]: 0.084 Nanomoles/minute/mg of microsomal protein
Rate, 22:0 acyl-CoA product [1, 5]: 0.047 Nanomoles/minute/mg of microsomal protein
Rate, 24:0 acyl-CoA product [1, 5]: 0.043 Nanomoles/minute/mg of microsomal protein
Rate, 26:0 acyl-CoA product [1, 5]: 0.042 Nanomoles/minute/mg of microsomal protein
Rate, Total acyl-CoA products [1, 5]: 0.216 Nanomoles/minute/mg of microsomal protein
20:0 product as a percent of total products formed [1, 6]: 46.2%
22:0 product as a percent of total products formed [1, 6]: 18.7%
24:0 product as a percent of total products formed [1, 6]: 18.1%
26:0 product as a percent of total products formed [1, 6]: 17.1%
Total products as a percent of total products formed [1, 6]: 100.0%
20:0 product as a percent of total products formed [1, 7]: 53.9%
22:0 product as a percent of total products formed [1, 7]: 14.4%
24:0 product as a percent of total products formed [1, 7]: 18.5%
26:0 product as a percent of total products formed [1, 7]: 13.2%
Total products as a percent of total products formed [1, 7]: 100.0%
increase in overall elongase activity on induction with galactose, 18:0 acyl CoA substrate ([1]; galactose-induced vs glucose): about 19 fold
20:0 product as a percent of total products formed [1, 8]: 41.7%
22:0 product as a percent of total products formed [1, 8]: 19.4%
24:0 product as a percent of total products formed [1, 8]: 16.7%
26:0 product as a percent of total products formed [1, 8]: 22.3%
Total products as a percent of total products formed [1, 8]: 100.0%
20:0 product as a percent of total products formed [1, 9]: 34.4%
22:0 product as a percent of total products formed [1, 9]: 13.7%
24:0 product as a percent of total products formed [1, 9]: 20.6%
26:0 product as a percent of total products formed [1, 9]: 31.4%
Total products as a percent of total products formed [1, 9]: 100.0%
20:0 product as a percent of total products formed [1, 10]: 47.8%
22:0 product as a percent of total products formed [1, 10]: 18.0%
24:0 product as a percent of total products formed [1, 10]: 19.1%
26:0 product as a percent of total products formed [1, 10]: 15.2%
Total products as a percent of total products formed [1, 10]: 100.0%
18:0-CoA elongation activity, +Glu ([1]; microsomes from glucose-grown cultures, standard reaction mix): .037 nanomoles/minute/mg of microsomal protein
increase in 18:1 CoA elongation, microsomes from induced vs uninduced cells [2]: about 1.3 fold
(%) 20:1 acyl CoA [2, 11]: 100.0%
(%) 22:1 acyl CoA [2, 11]: 0.0%
(%) 24:1 acyl CoA [2, 11]: 0.0%
(%) 26:1 acyl CoA [2, 11]: 0.0%
(%) Total [2, 11]: 100.0%
Rate, 20:1 acyl CoA [2, 11]: 0.081 Nanomoles/minute/mg of microsomal protein
Rate, 22:1 acyl CoA [2, 11]: 0.000 Nanomoles/minute/mg of microsomal protein
Rate, 24:1 acyl CoA [2, 11]: 0.000 Nanomoles/minute/mg of microsomal protein
Rate, 26:1 acyl CoA [2, 11]: 0.000 Nanomoles/minute/mg of microsomal protein
Rate, Total [2, 11]: 0.081 Nanomoles/minute/mg of microsomal protein
(%) 20:1 acyl CoA [2, 12]: 100.0%
(%) 22:1 acyl CoA [2, 12]: 0.0%
(%) 24:1 acyl CoA [2, 12]: 0.0%
(%) 26:1 acyl CoA [2, 12]: 0.0%
(%) Total [2, 12]: 100.0%
Rate, 20:1 acyl CoA [2, 12]: 0.062 Nanomoles/minute/mg of microsomal protein
Rate, 22:1 acyl CoA [2, 12]: 0.000 Nanomoles/minute/mg of microsomal protein
Rate, 24:1 acyl CoA [2, 12]: 0.000 Nanomoles/minute/mg of microsomal protein
Rate, 26:1 acyl CoA [2, 12]: 0.000 Nanomoles/minute/mg of microsomal protein
Rate, Total [2, 12]: 0.062 Nanomoles/minute/mg of microsomal protein
(%) 20:1 acyl-CoA product [2, 13]: 80.8%
(%) 22:1 acyl-CoA product [2, 13]: 19.2%
(%) 24:1 acyl-CoA product [2, 13]: 0.0%
(%) 26:1 acyl-CoA product [2, 13]: 0.0%
(%) Total acyl-CoA products [2, 13]: 100.0%
Rate, 20:1 acyl-CoA product [2, 13]: 0.111 Nanomoles/minute/mg of microsomal protein
Rate, 22:1 acyl-CoA product [2, 13]: 0.026 Nanomoles/minute/mg of microsomal protein
Rate, 24:1 acyl-CoA product [2, 13]: 0.0 Nanomoles/minute/mg of microsomal protein
Rate, 26:1 acyl-CoA product [2, 13]: 0.0 Nanomoles/minute/mg of microsomal protein
Rate, Total acyl-CoA products [2, 13]: 0.137 Nanomoles/minute/mg of microsomal protein
